Laboratory results reported in paper PMC3430870 (Nature structural & molecular biology, 2011).
Changes are numbered by the printed parent chain. Like-named read-outs stand apart in the source and are kept apart here.

B1: WIF-1_(EGFs I-V) (human WIF-1 residues 178-346) (domain or fragment, UniProt Q9Y5W5 178-346, looked up)
chain: QQAECPGGCRNGGFCNERRICECPDGFHGPHCEKALCTPRCMNGGLCVTPGFCICPPGFYGVNCDKANCSTTCFNGGTCFYPGKCICPPGLEGEQCEISKCPQPCRNGGKCIGKSKCKCSKGYQGDLCSKPVCEPGCGAHGTCHEPNKCQCQEGWHGRHCNKRYEASLI
B2: WIF-1_(WD-EGF-I) (human WIF-1 residues 35-210) (domain or fragment, UniProt Q9Y5W5 35-210, looked up)
chain: SLYLWIDAHQARVLIGFEEDILIVSEGKMAPFTHDFRKAQQRMPAIPVNIHSMNFTWQAAGQAEYFYEFLSLRSLDKGIMADPTVNVPLLGTVPHKASVVQVGFPCLGKQDGVAAFEVDVIVMNSEGNTILKTPQNAIFFKTCQQAECPGGCRNGGFCNERRICECPDGFHGPHCE
B3: WIF-1_(WD-EGF-I) Met77Trp (domain or fragment, human, UniProt Q9Y5W5 35-210, looked up)
chain: B2 chain with M43W
B4: WIF-1ΔC (human WIF-1 residues 35-346) (domain or fragment, UniProt Q9Y5W5 35-346, looked up)
chain: SLYLWIDAHQARVLIGFEEDILIVSEGKMAPFTHDFRKAQQRMPAIPVNIHSMNFTWQAAGQAEYFYEFLSLRSLDKGIMADPTVNVPLLGTVPHKASVVQVGFPCLGKQDGVAAFEVDVIVMNSEGNTILKTPQNAIFFKTCQQAECPGGCRNGGFCNERRICECPDGFHGPHCEKALCTPRCMNGGLCVTPGFCICPPGFYGVNCDKANCSTTCFNGGTCFYPGKCICPPGLEGEQCEISKCPQPCRNGGKCIGKSKCKCSKGYQGDLCSKPVCEPGCGAHGTCHEPNKCQCQEGWHGRHCNKRYEASLI
B5: WIF-1ΔC Met77Trp (domain or fragment, human, UniProt Q9Y5W5 35-346, looked up)
chain: B4 chain with M43W
B6: WIF-1_(WD-EGFs I-III) (human WIF-1 residues 35-274) (domain or fragment, UniProt Q9Y5W5 35-274, looked up)
chain: SLYLWIDAHQARVLIGFEEDILIVSEGKMAPFTHDFRKAQQRMPAIPVNIHSMNFTWQAAGQAEYFYEFLSLRSLDKGIMADPTVNVPLLGTVPHKASVVQVGFPCLGKQDGVAAFEVDVIVMNSEGNTILKTPQNAIFFKTCQQAECPGGCRNGGFCNERRICECPDGFHGPHCEKALCTPRCMNGGLCVTPGFCICPPGFYGVNCDKANCSTTCFNGGTCFYPGKCICPPGLEGEQCE
B7: WIF-1WD (WIF domain of human Wnt inhibitory factor 1, residues 35-178) (domain or fragment, UniProt Q9Y5W5 35-178, looked up)
chain: SLYLWIDAHQARVLIGFEEDILIVSEGKMAPFTHDFRKAQQRMPAIPVNIHSMNFTWQAAGQAEYFYEFLSLRSLDKGIMADPTVNVPLLGTVPHKASVVQVGFPCLGKQDGVAAFEVDVIVMNSEGNTILKTPQNAIFFKTCQ

Columns and labels:
Assay in all cases: SPR
[1] = biological target: T1, mouse Wnt3a (mouse, UniProt P27467 19-352)
[2] = biological target: T1, mouse Wnt3a; remark: listed apart in the source
[3] = biological target: T1, mouse Wnt3a; remark: listed apart in the source
[4] = biological target: T1, mouse Wnt3a; remark: listed apart in the source
[5] = biological target: T1, mouse Wnt3a; remark: listed apart in the source

T1 sequence (P27467 19-352): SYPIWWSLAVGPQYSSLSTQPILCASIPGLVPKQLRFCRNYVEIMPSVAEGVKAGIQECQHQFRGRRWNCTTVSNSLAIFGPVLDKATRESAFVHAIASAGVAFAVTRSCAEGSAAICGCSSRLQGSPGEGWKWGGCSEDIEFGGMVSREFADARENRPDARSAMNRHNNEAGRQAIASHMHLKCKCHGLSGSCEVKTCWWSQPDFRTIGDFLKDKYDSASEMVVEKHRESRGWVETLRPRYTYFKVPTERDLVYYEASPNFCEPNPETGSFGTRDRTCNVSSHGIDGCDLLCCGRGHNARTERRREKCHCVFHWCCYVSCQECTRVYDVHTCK

Binder	Kd [1] [µM]	also measured
B1	0.9	
B2	5.6	Kd [2]: 9.86 µM; Kd [3]: 16.8 µM; Kd [4]: 15.9 µM; Kd [5]: 16.9 µM
B3	2.86	
B4	0.0216	
B5	0.217	
B6	3.21	
B7	3.4	
